Test results taken from IntAct's records for PubMed 24802387.

B1: Relaxin-3 (Homo sapiens), Q8WXF3 (parent)
chain: MARYMLLLLLAVWVLTGELWPGAEARAAPYGVRLCGREFIRAVIFTCGGSRWRRSDILAHEAMGDTFPDADADEDSLAGELDEAMGSSEWLALTKSPQAFYRGRPSWQGTPGVLRGSRDVLAGLSSSCCKWGCSKSEISSLC

Variants of: B1
Conditions: with rl3r2_human RXFP4, Q8TDU9
Chain of rl3r2_human RXFP4, Q8TDU9 (Q8TDU9 whole entry): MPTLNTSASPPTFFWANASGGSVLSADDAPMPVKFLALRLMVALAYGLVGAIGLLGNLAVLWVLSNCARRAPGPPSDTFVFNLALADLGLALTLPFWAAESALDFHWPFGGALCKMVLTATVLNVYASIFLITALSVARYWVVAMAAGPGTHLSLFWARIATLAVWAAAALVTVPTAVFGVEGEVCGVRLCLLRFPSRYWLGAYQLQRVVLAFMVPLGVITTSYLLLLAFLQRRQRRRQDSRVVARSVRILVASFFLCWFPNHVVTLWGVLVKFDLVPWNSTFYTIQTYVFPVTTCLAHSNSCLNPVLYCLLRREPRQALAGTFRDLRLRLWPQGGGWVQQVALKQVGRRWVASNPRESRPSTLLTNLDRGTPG

Q: How did the “effect of a mutation on the interaction” value turn out when R41E was run?
A: decreasing interaction

Variants of: B1
Conditions: with rl3r2_human RXFP4, Q8TDU9
Remark: another data set of the same source

Q: R41E was tested. Which “effect of a mutation on the interaction” value did it give?
A: increasing interaction

Variants of: B1
Conditions: with rl3r2_human RXFP4, Q8TDU9
Remark: another data set of the same source

Q: With R37E as the variant, how does the “effect of a mutation on the interaction” value read?
A: decreasing interaction

Variants of: B1
Conditions: with rl3r2_human RXFP4, Q8TDU9
Remark: another data set of the same source

Q: With R37E as the variant, how does the “effect of a mutation on the interaction” value read?
A: increasing interaction

Variants of: B1
Conditions: with rl3r2_human RXFP4, Q8TDU9
Remark: another data set of the same source

Q: For R51E, which “effect of a mutation on the interaction” value is on record?
A: decreasing interaction

Variants of: B1
Conditions: with rl3r2_human RXFP4, Q8TDU9
Remark: another data set of the same source

Q: With R51E as the variant, how does the “effect of a mutation on the interaction” value read?
A: increasing interaction
